# Source: the nanobody polyreactivity screen of Harvey et al. (2022)
# Experiment: yeast display, Sf9 membrane polyspecificity reagent, FACS + sequencing; frameworks hold sequencing errors
# In short: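 A nanobody's polyreactivity label depends on the gate it was sorted from. Yeast display cells were stained with 10% biotinylated, detergent-solubilized Sf9 membrane reagent for 1 hour at 4 °C, enriched on streptavidin microbeads and sorted by FACS. The low and high (top ~1%) gates were set on anti-HA fluorescence for expression and streptavidin fluorescence for reagent binding.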
row,Sequence,polyreactivity (PSR sort gate)
1,QVQHVESGGGLVQAGGSLRLSCAASGRTLSFYAMGWYRQAPGKERELVAAINYSGGRTSYADSVKGRFTISRDNAKNTVYLQMNSLKPEDTAVYYCAKGVYPWGVYYWGQGTQVTVSS,low polyreactivity
2,QVQLVESGGGLVQAGGTLRLSCAASGITFTGNDMGWYRQAPGKERELVAAISNRGGSTYYADSVKGRFTISRDNAKNTVYLQMNSLKPEDTAVYYCRTSTPRRVSGNYWGQGTQVTVSS,high polyreactivity
3,QVQLVESGGGLVQAGRSLRLSCAASGFIFGHNAMGWSRQAPGKERELFAAIRSRGGSTYYADSVKGRFTISRDNAKNTVYLQMNSLKREDTAVYYCAADGAVVSSSRKFVYWGQGTQVTVSS,low polyreactivity
4,QFQLEESGGGLVQAGGSLRLSCAASARIFLNYAMGWFRQAPGKEMELVAAIRSASSTYYADSVKGRFTISRDNAKNTVYLQMNSLKAEDTAVYYCARLRYFLLNGSLRYGSSDRDYWGQGTQVTVSS,high polyreactivity
5,QVHLVVSGGGLVQAGGSLRLSCAASGLTIWYYAMGWYRQAPGKESEFVAAITSRGGDTYYADSVKGRFTISRDNAKNTVYLQMNSLKPEDTAVYYCAVRPRYYGTYRYYYWGQGTQVTVSS,high polyreactivity
6,QDQLVESGGGLVQEGGSLRLSCAASVSIQAPYAMGWYRQAPGKERELVAAISSRGGSTYYADSVKGRFTISRDNAKNTVYLQMNSLKPEDTAVYYCAAYVYLQVEYDYWGQGTQVTVSW,low polyreactivity
7,QVQLVESGGGLVQAGGSLRLSCAASGRIFRYYAMGWYRQAPGKERELVAAISDSSGSTYYADSVKGRFTISRDNAKNTVYLQMNSLKPEDTAVYYCRYYFGSGFYYWGQGTQVTVSS,high polyreactivity
8,QVQLVESGGGLVQAGGSLRLSCAASGYTFGINAMGWYRQAPGKERELVAAITTGGSTNYADSVKGRFTISRDNAKNSVYLQMNSLKPEDTAVYYCNASWDVWNANYWYPGAYYYWGQGTQVTVSS,low polyreactivity
9,QVQLVESGGGLVQAGGILRLSCAASGSTFGYYAMGWYRPAPGKERELVAAIRSDDITYYADSVKGRFTISRDNAKNTVYLQMISLKPEDTAVYYCAVSQRYGGRRGCYWGQGTQVTVSS,low polyreactivity
10,QVQLVESGGGLVQAGGSLRLSCAASGFTFRYYAMGWYRKAPGKERELVAAITRRGGSKYYADSVKGRFTISRDNAKNTVYLQMNSLKPEDTAVYDCAASLWTTSADYDYWGQGTQVTVSS,high polyreactivity
11,QVQLVESGRGLLQAGGSLRLSCASSGCIFTSYAMGWYRPAPGKVRELVAGITRGGRTYYADSVKGRFTISRDKAKNTVYLQSNSLKPEDTAVYYCAALSSRHFVFTVDYWGQATQVTVSS,high polyreactivity
12,QVQLVESGGGLVQAGGSLRLSCAASGLIIRRYAMGWYRQAPGKERELVAAISGSGSSTYYADSVKGRFTISRDNAKNTVYLQMNSLKPEDTAVYDCAAVVLFRRGQVIRVESDYWGQGTQVTVSS,high polyreactivity
13,QVQLVESGGGLVQAGGSLRLSCAASGFTFWRYAMGRYRQAPGKERELVAGISSGGSTNYADSVKGRFTISRDNAKNTVYLQMNSLKPEDTAVYYCAARGNYFYGIYGYWGQGTQVTVSS,low polyreactivity
14,QVQLVESGGGLVQAGGSLRLSCAASGSTFARNTMGWYRHAPGKERELVAVITRGDSTYYADSVKGRFTISRDNAKNTVYLQMNSLKPEDTAGYYCNAYFRYAYPSKMDYWVQGTQVTVSS,low polyreactivity
15,QVQLVESGGGLVQARGSLRLSCAASGSIFPGYAMRWYREAPGKARELVAAISTSGGSTYADSVTGRFTISRDNAKNTGYLQMNSLKPEDTAVYYCAATYTYTSPVYYSLDGPWPYDYWGQGSQVTVSS,low polyreactivity
16,QVQRVESGGGLVQAGGSLRLSCAASGSTFTRYGMGWYRQAPGKERELVAAISDRGVSTYYADSVKGRFTISRDNAKNTVYLQMNRMKPEDTAVYYCAAVFWVDILPGDYWGQGTQVTVSS,low polyreactivity
17,QDQLVESGGGIVQAGGSLRLICAASGRIFLRNDMGWYRQAPGKQRELVAGISSDGSTYYADSVKGRFTISRDNAKNTVYLQMNSLKPEDTAVYYCADERWGNPTDYQFWRQYDYWGQGTQVTVSS,low polyreactivity
18,QVQLVESGGGLVQAGGSLRLSCAASGRTFSAYAMVWYRQAPGKERELVAAISRRGGSTYYADSVKGRFTISRDNAKNTVYLQMKSLKPEDTAVYYCAADVYKQYGYYFWGQGTQVTVSS,high polyreactivity
19,QVQIVESGGGLVQAGGSLRLSCASSGSTFTHYAMGWYRQAPGKERELVAGISWGGSSTYYADSVKGRFTISRDNAKNTVYLQMNSLKPEDTAVYYCAAGRRGSYPGGYGYWGQGTQVTVSS,low polyreactivity
20,QVQLVESGGGLVQAGGCLRISFAASGLTFVWYGMGWYRPATGKERELVAAITSVRTTYYADSVKGRFTISRDNAKNSVYLQMTSLKAEDSGFYYCAAQWAGYGDLPWPYSVIVEFYYWGQGSQVTVSS,low polyreactivity
21,QVQLVESGGGLVQAGGSLRLSCAASGSIYWLYAMGWYRQAPGKERELVAAIDSGDSTKNADSVKGRFTISRDNAKNTVYLQMNSLKPEDTAVYYCNASRRYHVRAPYDYWGQGTHVTVSS,low polyreactivity
22,QVQLVESGGGLVQAGGSLRLSCAASGSILIWNTMGWYRQAPGKERELVAAISSGASTYYADSVKGRFTISRDNAKNTVYLQMNSLKPEDTAVYYFYVDLPRVLTDDSWGQGTQVTVSS,low polyreactivity

row,Sequence,polyreactivity (PSR sort gate)
1,QVQIVESGGGLVQAGVSLRLSCAASGSIYYEYTMGWYRQAPGKERELVAVITSCGTTNYADSVKGRFTISRDNAKNTVFLQMNSLKPEDTAVYYCAAKRRTGGNGYWGQGTQVTVSS,high polyreactivity
2,QVQLVESGGGLVQAGGSLRLSCAASGNIFDIYAMGWYRQATGKERELVAAICSGGSTYYADSVKGRFTISRDNAKNTVYLQMISLKTEDTAVDYCAESRVGYYRYEYWGQGTQVTVSS,low polyreactivity
3,QVQLVESGGGLVQAGGSLRLSCAASGSIFGWYAMGWYRQAPGKERELVAAISGSGGSTYYADSVKGRFTISRDTAKNTVYLQMNSLKPEDTAVYYCNAYRRVGTSEYWGQGTQVTVSS,high polyreactivity
4,QVQLVESGGGLVQAGGILRLSCAASGRTFGLYAMGRYRQAPGKERELVAAITRSDGGTNYADSVKGRFTISRDNAKNTVYLQMNSLKAEDTAVYYCAVDLGYVSHVSWYAYEYWGQGTQVTVSS,low polyreactivity
5,QVQLVESGGGLVQAGGSLRLSCAASGRTFVSYVMGWYRQAPGKERELVAAIRRRGGRTYYADSVKGRFTISRDNAKNTVYLQMNSLKPEDTAVYYCAAAQPGTNAYRVGSWGQGTQVTVSS,high polyreactivity
6,QVQLVESGGGLVQAGGSLRLSCAASGRIFYSNTMGWYRQAPGKERELVARIDTGGGSTYADSVKGRFTISRDNAKNTVYLQMNSLKPEDTAVYYCAALKFEAWAGEDYWGQGTQVTVSS,low polyreactivity
7,QVQLVESGGGLVQAGGSLRLSCAASGFTFYLYTMGWYRQAPGKERQLVAAISGSGGSTYYADSVKGRFTISRDNAKITVYLQMNSLKPEDTAVYYCAASPVRVGKVIDRRDYWGQGTQVTVSS,high polyreactivity
8,QVQLVESRGVLVQAGGSLRLSCAASGSNFYVYAMGWYRPAPGKERELVAGISWSADSTYYADSVKGRFTISRDNAKYTVYLQMNSLKPEDSAVYYCATDRYPTRRYDYWGQGTQVTVSS,low polyreactivity
9,QVQLVDSGGGLVQAGGRLRLSCAASGSTFRLYAMGWYRQAPGKERELVAAISSNGVRTYYADSVKGRFTISRDNAKNTVYLQLNSLKPEDTAVYYCAARVYPAYPRGYDYWGQGTQVTVSS,high polyreactivity
10,QVQLVESGGGLVQAGGSLRLSCAASGSTFSCNSMGWYRQAPGKERELVAAITSGGSTNYADSVKGRFTISRDNAKNTVFLQMNSLKPEDTAVYYCAKRYGYRRYYTASDYWGQGTQVTVSS,low polyreactivity
11,QVQLVESGGGLVQAGGSLRLSCAASGSTIWSYAMGWYRQAPGKERELVASITWSGGSTYADSVKGRFTISRDNAKNTVYLQMNSLKPEDTAVYYCARESTLTYYSDDFDYWGQGTQVTVSS,low polyreactivity
12,QVQLQESGGGMVQAGGSLRLSCASSGYISWADYMGWSRQAPGKERELVDGIGYGSTTYYADSVKGRFNISRDNAKNTAYLQMISLKPEDTAVYYCAVGWYSVTAYNYWGQGTQVTVSS,low polyreactivity
13,QVQLEESGGGLVQAGGSLRLSCAASGSIFFYYAMGWYRQAPGKERELVAAIRSGTSTNYADSVKGRFTISRDNAKNTVYLQMNSLKPEDTAVYYCAARFPGGCYGMDYWGQGTQVTVSS,low polyreactivity
14,QVQLVESGGGLVQAGGSLRLSCAASGSIFWTNAMGWYRQAPGKERELVARITYSGGSTYSADSVKGRFTISRDNAKNTVYLQMNSLKPEDTAVYYCNARTHGWPYSRYYYWGQGTQVTVSS,high polyreactivity
15,QVQLVESGAGLVQEGGSLRLSCAASGRTSGFNTMGRYRQAPGKETQLVAAISFSGGSTYYADSVKGRFTISRDNEKNTVYLQMNSLKPEDTEVYYCNALYRYLYRSGDYWGQGTQVSVSS,low polyreactivity
16,QVQLVESGGGLVQAGGSLRLSCAASGRIFGYYAMGWYRQAPGKERELVAAISSSGTSTYYADSVKGRFTISRDNAKNTVYLQMNSLKPEDTAVYYCAAYTYYEGDYWGQGTQVTVSS,low polyreactivity
17,QVQLVESGGGLVQAGGSLRLSCAASGFTLGYNAMGWYRQAPGTERELVAAITRSGGSTYYADSVKGRFTISRDNAKNTVYLQMNSLKPEDTAVYYCNARSVYGSKQEEYWGQGTQVTVSS,high polyreactivity
18,QVQLVESGGGLVEAGGSLRLSCAASGSILYYNAMGWYRQAPGKERELVAAISTRGGSTYYADSVKGRFTSSRDNAKKTVYLQMNSLKPEDTAVYYCAADHNVIWGYYYWGQGTQVTVSS,high polyreactivity
19,QVQLVESGGGLVQAGGSLRLSCAASGRTFGTYVMGWYRQAPGKERELVAAITGSGGSTYYADSVKGRFTISRDNAKNTVYLQMNSLKPEDPAVYYCAARAYQHYNWGQGTQVTVSS,high polyreactivity
20,QVQLVESGGGLVQAGGSLRLSCAASGRIFNKNAMGWYRQPPGKEREFVAAISRSGGRTYYADSVKGRFTISRDNAKNTVYLQMNSLKPEDPAVYFCAAEYRGVPRVVVDYDYWGQGTQVTVSS,high polyreactivity
21,QVQLVESVGGLVQAGGSLRLSCAASGSIFAIYVMGSYRQAPGKERELVAAISYRSGSTYYADSVKGRFTISRDNAKNTVYLQMNSLKPEDTAVYYCAATSRYYTFGYWGQGTQVTVSS,low polyreactivity
